Measured values reported in the supplement of paper PMC10567573.

B1: ELF3 (parent)
chain: RLVYKFGKNSSGWKEEEVLQSRN

Variants of: B1
Assay: protein stability index of a GFP-peptide fusion (GPS, HEK-293T) (PSI 1-6); higher = more stable
Details: c terminus: native
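Also: lentivirally expressed fusions sorted by FACS into six bins by GFP to DsRed ratio, PSI derived from sequencing read proportions per bin multiplied by bin number.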

Protein stability index: each site, then its substitutions
S11: T 2.83 | V 3.33 | P 2.79 | E 3.01 | F 1.09 | I 1.54 | H 1.89 | M 1.73 | Y 2.21 | C 1.84 | D 3.33 | R 2.05 | N 1.89 | K 1.6 | L 1.78
N9: K 1.97 | Q 1.87 | T 1.73 | L 2.59 | M 4.34 | P 2.33 | S 2.22 | F 1.98 | E 3.08 | R 2.91 | D 3.19 | A 1.7 | G 1.9 | Y 1.25 | V 2.08 | H 1.68
G7: H 1.8 | W 3.57 | D 4.11 | Y 2.41 | E 2.94 | M 1.81 | P 2.31 | N 2.64 | I 1.46 | T 2.31 | K 1.9 | S 2.67 | R 2.29 | V 1.49 | A 1.89 | Q 2.5
F6: I 2.26 | D 4.7 | A 3.69 | V 3.89 | W 2.12 | L 1.61 | G 3.75 | E 4.52 | H 3.29 | R 3.06 | S 3.28 | N 3.65 | K 3.53 | C 1.42 | T 3.5 | P 3.47 | Y 2.45 | Q 3.08
K5: D 2.8 | Q 2.09 | T 2.14 | C 2.52 | H 1.98 | L 2.75 | I 1.36 | E 2.89 | M 1.91 | A 1.76 | R 1.05 | S 2.5 | P 1.89 | V 1.95 | N 2.39 | Y 2.16
L2: Q 3.04 | P 2.66 | S 2.93 | T 2.84 | N 3.41 | Y 1.85 | M 2.99 | V 2.71 | R 2.87 | W 1.58
S10: T 3.02 | A 2.64 | K 2.23 | Q 2.51 | P 2.1 | M 1.9 | G 2.11 | N 2.1 | D 3.25 | R 1.18 | I 1.66 | C 2.55 | E 2.86 | F 1.34 | Y 1.56 | H 2.56
V3: F 2.38 | P 2.63 | L 1.9 | S 2.7 | Y 2.37 | D 4.2 | C 1.71 | A 3.88 | R 2.75 | G 2.48 | N 3.46 | K 2.49 | E 4.75 | M 2.38 | T 2.86 | H 2.53
K8: I 2.14 | F 1.86 | V 1.91 | M 1.38 | C 2.85 | H 2.26 | P 2.25 | R 1.31 | S 2.44 | Y 1.42 | G 2.49 | T 2.62 | E 2.97 | L 1.92 | A 2.77 | N 2.46 | D 3.36
Y4: Q 3.16 | F 2.35 | N 3.13 | V 2.82 | M 2.55 | R 1.23 | H 3.8 | A 3.39 | S 2.42 | T 3.06 | K 3.36 | E 3.47 | I 2.12 | G 2.69 | D 3.73 | C 1.95 | P 3.43 | L 1.83
G12: I 1.76 | K 1.69 | F 1.82 | E 2.98 | L 3.23 | D 3.19 | C 2.05 | A 2.37 | H 2.02
